From the RNAGym collection of RNA variant scans (doi:10.1093/nar/gkz1192)

B1: CPEB3 Ribozyme (parent)
chain: UAACAGGGGGCCACAGCAGAAGCGUUCACGUCGCAGCCCCUGUCAGAUUCUGGUGAAUCUGCGAAUUCUGCUGUAUAUCUC

Variants of: B1
Experiment: self-cleavage, relative activity (ratio to wild type); higher = more cleavage; in vitro, sequencing
How it was run: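 Relative activity was defined as the cleaved/total read fraction for a variant divided by the same fraction for the unmutated ribozyme. CPEB3 self-cleaving ribozyme libraries were made by rounds of error-prone PCR, barcoded, and transcribed in vitro with T7 RNA polymerase for 5 hours at 37°C, and cleavage ran through transcription plus a 15 min DNase I step before EDTA. Illumina sequencing of template-switched reverse transcripts gave the reads, and DNA sequencing mapped the barcodes. Averages come from three batches, using variants with at least 5 reads.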

Variant | self-cleavage
A45U C79A | 0.8
A45U C79U | 0.77
A45G U76A | 0.96
A45G U76G | 0.97
A45G U76C | 0.79
A47U A56G | 0.35
A47U A56U | 0.33
A45U C50A | 0.16
A45U C50G | 0.06
A45U G70A | 0.29
A45U U48C | 0.34
A45U U48A | 0.15
A45U A56C | 0.28
A45U A56G | 0.27
A45U A56U | 0.23
A47G U58G | 0.29
A47G U58A | 0.57
A47G U58C | 1.1
A47G U49A | 0.34
A47G U49G | 0.47
A47G U49C | 0.33
G46C U60A | 0.11
G46C U60C | 0.2
G46A U54C | 0.06

Variant | self-cleavage
A45U G63C | 0.66
A45U G63A | 0.54
A45U G63U | 0.46
A45U U49A | 0.17
A45U U49C | 0.25
A47U U72A | 0.35
A47U U72C | 0.53
G46U A65G | 0.07
A47U C62U | 0.33
A47C U80C | 0.43
A47G U78A | 1.07
A47G U78C | 0.93
A47G U78G | 0.79
A45U G46A | 0.41
A47C G63A | 0.56
G46C A64U | 0.11
G46A A57G | 0.16
A47U U54A | 0.72
A47U U54C | 0.37
G46U C68U | 0.23
A47G G53A | 1.18
A47G G53C | 1.19
G46U A56G | 0.18
G46U A56U | 0.17

Variant | self-cleavage
G46A A56G | 0.25
G46C U49A | 0.04
G46C U80A | 0.2
G46U U78C | 0.27
A45U C71U | 0.13
A45U C71A | 0.1
A47G C79U | 1.12
A47G U66C | 0.35
A47G U66A | 0.45
A47G U66G | 0.27
A47U C50A | 0.23
A47U U67C | 0.3
A47U U67A | 0.33
A47U U58C | 0.39
A45G U74A | 1.13
A45G U74G | 1.21
A45G U74C | 1.1
A47U G53U | 1.03
A47G A64G | 0.9
A47G A64U | 0.34
A45U | 0.51
A47G A77G | 1.09
A47G A77U | 1.06
A45U U74C | 0.87

Variant | self-cleavage
A45U U74A | 1.03
A45U U74G | 1.09
G46U U66C | 0.16
A45U C68U | 0.53
A45U C68G | 0.25
A47G G55C | 0.57
A47G G55U | 0.99
A47G G55A | 0.75
A45U C62U | 0.31
A45U C62A | 0.17
A45U C62G | 0.44
A47G C68U | 0.89
A47G C68A | 0.43
A47U U66A | 0.26
A47U U66C | 0.36
A47G G73U | 1.26
A47G G73A | 1.21
A47C | 0.4
A47G | 1.01
A47U | 0.62
G46U A57G | 0.22
A47G U60C | 0.37
A47G U60G | 0.41
A47G U60A | 0.41

Variant | self-cleavage
G46U A75G | 0.22
G46U A75C | 0.37
G46A A77U | 0.48
G46A A77G | 0.27
A47C C71U | 0.13
G46U A77G | 0.2
A47G A65G | 0.4
A47G A65U | 0.49
G46U U60C | 0.19
G46U U60A | 0.38
A45U A77U | 0.55
A45U A77G | 0.52
G46A U67C | 0.15
G46A U67A | 0.18
A47G U74G | 1.24
A47G U74C | 1.13
A47G U74A | 1.21
G46C U72A | 0.25
A47C A75U | 0.3
A47C G73A | 0.85
G46A U66C | 0.25
A47U G52A | 0.86
G46U U69C | 0.53
G46U U69A | 0.22

Variant | self-cleavage
A47C U60A | 0.15
A45U U72A | 0.39
A45U U72G | 0.61
A45U U72C | 0.5
A47U U48G | 0.18
A47U U48C | 0.26
A45U A47U | 0.24
A45U A47C | 0.22
A45U A47G | 0.36
G46A U72C | 0.32
A47U C81A | 1.13
G46A U78C | 0.38
G46U G53C | 0.23
A47U A57U | 0.64
A47U A57G | 0.32
A47G C81U | 1.04
A47C C59U | 0.18
A47U U49C | 0.46
A47U U49A | 0.41
A47G C50A | 0.59
A47G C50U | 0.8
A45U U78C | 0.44
A45U U78A | 0.62
A45U U78G | 0.65

Variant | self-cleavage
A47C A65U | 0.12
G46U G70A | 0.08
A47G A56U | 0.45
A47G A56G | 0.71
A47G A56C | 0.95
A47U U69C | 0.33
A47U U69A | 0.34
G46A U74C | 0.48
G46A U58C | 0.38
G46A U76A | 0.5
G46A U76C | 0.19
A47C U69C | 0.25
G46U U49A | 0.29
A47C C62U | 0.18
A45G U72A | 0.62
A45G U72C | 0.98
A47G C62A | 0.33
A47G C62U | 0.3
A47G A75C | 0.98
A47G A75U | 1.11
A47G A75G | 0.88
A47C G55U | 0.16
G46U U72A | 0.37
